T1: ΔNp63α (human, UniProt Q9H3D4-2 1-586)
T1 construct: open, tetrameric; also called DNp63a; source: E. coli, bacterially expressed and purified (IMAC, SEC on Superose 6)
T1 sequence (looked up): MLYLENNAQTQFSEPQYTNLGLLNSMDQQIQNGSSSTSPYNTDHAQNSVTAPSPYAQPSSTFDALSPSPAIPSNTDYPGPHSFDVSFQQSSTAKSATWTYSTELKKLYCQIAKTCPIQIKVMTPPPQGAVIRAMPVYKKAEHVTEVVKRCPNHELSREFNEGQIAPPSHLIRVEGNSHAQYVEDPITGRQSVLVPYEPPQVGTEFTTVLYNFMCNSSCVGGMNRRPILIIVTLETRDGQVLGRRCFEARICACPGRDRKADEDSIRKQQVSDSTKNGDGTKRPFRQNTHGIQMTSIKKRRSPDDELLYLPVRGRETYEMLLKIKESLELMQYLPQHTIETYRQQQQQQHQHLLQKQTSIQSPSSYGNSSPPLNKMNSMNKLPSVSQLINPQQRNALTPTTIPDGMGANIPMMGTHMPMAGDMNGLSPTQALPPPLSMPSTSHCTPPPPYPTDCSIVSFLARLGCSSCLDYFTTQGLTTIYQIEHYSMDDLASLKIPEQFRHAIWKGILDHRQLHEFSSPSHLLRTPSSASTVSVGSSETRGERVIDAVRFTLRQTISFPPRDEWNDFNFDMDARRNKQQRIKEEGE


How the values were obtained:
Conditions in all cases: both partners purified
[1] = target: T2, p73 DNA-binding domain; assay: ITC; target protein titrated into a constant concentration of DARPin, 25 injections of 10 µl; 50 mM HEPES pH 7.4, 150 mM NaCl, 0.5 mM TCEP; 25 °C; AB hetero-association model (SEDPHAT)
T2 construct: also called p73 DBD; source: E. coli BL21(DE3) Rosetta, purified (IMAC, TEV digestion, reverse IMAC, SEC)

[2] = target: T3, p63 DNA-binding domain (human); assay: ITC; target protein titrated into a constant concentration of DARPin, 25 injections of 10 µl; 50 mM HEPES pH 7.4, 150 mM NaCl, 0.5 mM TCEP; 10 °C; AB hetero-association model (SEDPHAT)
T3 construct: also called p63 DBD; source: E. coli BL21(DE3) Rosetta, purified (IMAC, TEV digestion, reverse IMAC, SEC)

[3] = target: T4, TAp63α (human); assay: fluorescence polarisation; fluorescence anisotropy; 500 nM Alexa 488 labeled DARPin constant, p63 isoform 0-10 µM; 50 mM Tris pH 8, 150 mM NaCl, 0.5 mM TCEP, 0.1 % Tween-20; the sheet says 20 °C, the methods 16 °C
T4 construct: closed, dimeric; also called TAp63a; source: E. coli, bacterially expressed and purified (IMAC, SEC on Superdex 200)

[4] = target: T1, ΔNp63α; assay: as above

Row | Ka [1] [M⁻¹] | Ka [2] [M⁻¹] | Kd [3] [nM] | Kd [4] [nM] | Binder
1 | 4.48e+06 | 3.14e+07 | – | – | DARPin G4 (designed binder, G4 assigned to 7Z7E by elimination: 7Z71 = C14, 7Z72 = A5, 7Z73 = 8F1; 7Z7E is the other p63 DBD-DARPin complex) GSDLGKKLLEAARAGQDDEVRILMANGADVNAADHSGDTPLHLAAMEGHLEIVEVLLKTGADVNAHDLEGYTPLHLAAYHGHLEIVEVLLKAGADVNAWDSYGYTPLHLAAMTGHLEIVEVLLKHGADVNAQDKFGKTPFDLAIDNGNEDIAEVLQKAA
2 | – | – | 727 | 137 | Alexa 488 labeled DARPin G4 (designed binder, Alexa Fluor 488 C5 maleimide on the C-terminal cysteine) GSDLGKKLLEAARAGQDDEVRILMANGADVNAADHSGDTPLHLAAMEGHLEIVEVLLKTGADVNAHDLEGYTPLHLAAYHGHLEIVEVLLKAGADVNAWDSYGYTPLHLAAMTGHLEIVEVLLKHGADVNAQDKFGKTPFDLAIDNGNEDIAEVLQKAA
